Data from patent US20260250737A1, “Engineered Luciferases and Luciferin Substrates” (Monod Bio, Inc., priority 2023, published 2026).
Numbering of substitutions follows the chain as printed. In names and notes the source's numbering stands.

Legend:
[1] = test system: MBIO-301-derived split enzyme; test: Bioluminescence emission of synthetic luciferin substrates with MBIO-301-derived split enzyme (FRB:FKBP, rapamycin); format: biochemical; details: 1 nM MBIO-557, 1 nM MBIO-563, 10 μM Substrate, 100 nM Rapamycin
Description: The MBIO-301 enzyme was split into two components: MBIO-557 (Small portion) and MBIO-563 (Large portion). • MBIO-557 has the following sequence: NRVDEVRVYINGSGS (SEQ ID NO:2735) • MBIO-563 has the following sequence:
Bioluminescence emission of synthetic luciferin substrates was measured. The luciferin substrates were incubated with MBIO-301-derived split enzyme. The two-component MBIO-301 split luciferase enzyme was fused to the rapamycin inducible FRB:FKBP system and incubated with its complementary part at a 1:1 ratio. Each of the molecules was incubated with 1×PBS, 0.5% Propylene Glycol, 0.05% Anti-foam, 100 mM Imidazole, 10 mM Ascorbic Acid buffer, 100 nM Rapamycin and emission signal was measured using a Synergy H1 plate reader.
In-well concentrations: 1 nM MBIO-557 (EGFP-FRB-Small portion), 1 nM MBIO-563 (EGFP-FKBP-Large portion), 10 μM Substrate, 100 nM Rapamycin.

[2] = Luciferase activity (brightness) of LuxSit-i variants; format: biochemical
[3] = Stability of LuxSit-i variants (yeast display protease resistance, static light scattering); format: physicochemical; details: for Stability improvement: relative to LuxSit-i
Description: In certain aspects, these polypeptides have improved stability at high temperatures as compared to LuxSit-i. For example, these polypeptides are stable at higher temperatures as compared to LuxSit-i. Stability may be measured by enzymatic activity and/or protein misfolding measured over a period of time. In certain embodiments, stability may be measured using static light scattering (SLS).
A single saturation mutagenesis (SSM) was performed to evaluate by yeast display the effect of single mutations in the stability of LuxSit-i (SEQ ID NO:1). The SSM library was transformed into electrocompetent cells of the strain EBY100. Twenty million cells were labeled with anti-myc FITC antibody in order to detect protein expression on the yeast surface by measuring fluorescence emission. Cells were sorted using a Sony SH800 cell sorter and those showing protein expression (FITC signal) were collected and grown. DNA was extracted from the sorted cells using conventional DNA extraction conventional methods. The DNA library was sequenced using Nanopore technology. Single amino acid substitutions that increase protein stability are enriched after sorting.
(§1) Single saturation mutagenesis (SSM) was performed to evaluate (by yeast display) the effect of single mutations in the stability of LuxSit-i-i. The SSM library was transformed into electrocompetent cells of the strain EBY100. Twenty million cells were labeled with an anti-myc FITC antibody to detect protein expression on the yeast surface by measuring the emission of fluorescence by FITC. Yeast were incubated with a mixture of 3.5 uM trypsin and 1.4 uM chymotrypsin (1/729 dilution of the stock solution) at 25° C. for 15 min. Cells were sorted using a Sony SH800 cell sorter and those showing protein expression (FITC signal) after protease incubation were collected and grown. DNA was extracted from the sorted cells using conventional DNA extraction conventional methods. The DNA library was sequenced using Nanopore technology. Single amino acid substitutions that increase protein stability are enriched after sorting.
as §1, with “LuxSit-i.” for “LuxSit-i-i.”, “antibody in order” for “antibody”, “10” for “3.5”, “4” for “1.4”, “(1/243” for “(1/729”
as §1, with “LuxSit-i.” for “LuxSit-i-i.”, “antibody in order” for “antibody”, “15” for “3.5”, “6” for “1.4”, “(1/162” for “(1/729”, “sorting. […]” for “sorting.”

LgLux_4039 = target: T1, LgLux_4039; test: cell-based or functional assay
T1 chain: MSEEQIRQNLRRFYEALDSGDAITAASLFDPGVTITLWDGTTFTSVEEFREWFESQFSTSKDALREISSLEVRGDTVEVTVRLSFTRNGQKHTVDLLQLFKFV

[4] = Luciferase activity (brightness) of LuxSit-i variants; format: biochemical; details: relative to LuxSit-i
Description: SSM was performed to evaluate the effect of single mutations on the luciferase activity of LuxSit-i. FIG. 3 graphically presents the mutation frequency at the positions found in the SSM as beneficial for increasing luciferase activity.
FIG. 4A provides data for luciferase activity for MBIO-148, MBIO-158 and Luxsit-i. MBIO-148, MBIO-158, and Luxsit-i were serially diluted starting from a final in-well concentration of 10,000 pM. Each dilution was combined with Diphenylterazine (DTZ) to a final in-well concentration of […]. Points shown are from the initial reading once the plate read was started.
FIG. 4B provides data for luciferase activity for MBIO-148, MBIO-301, MBIO-302, and LuxSit-i. MBIO-148, MBIO-301, MBIO-302, and Luxsit-i were serially diluted starting from a final in-well concentration of 500 pM. Each dilution was combined with DTZ to a final in-well concentration of 10 μM. Points shown are from the initial reading once the plate read was started.

[5] = among variants derived from MBIO-2859, Table 13
[6] = Table 3, combined substitutions

In the case of `O=c1c(Cc2ccccc2)nc2c(-c3cccnc3)[nH]c(-c3ccccc3)cn1-2` [2p], the “Fold Change with Rapamycin Addition at Initial Read” value [1] is reported as 17.1.

In the case of `O=c1c(Cc2ccccc2)nc2c(-c3ccccc3)[nH]c(-c3ccc(O)cc3)cn1-2` [1c], the “Fold Change with Rapamycin Addition at Initial Read” value [1] is reported as 116.8.

B1: MBIO-3073: MBIO-2466 variant (Table 12), SEQ ID NO:2711 (protein)
chain: MSEEQIRQNLRRFYEALDSGDADTAASLFDPGVTITLWDGTTFTSVEEFREWFERLFSTSKDALREIKSLEVRGDTVEVTVQLSFTRNGQKHTVDLLQLFKFVGNRVVDVRVYTNPTG
In the case of B1, the luciferase activity ([2]; among variants derived from MBIO-2466, Table 12) is reported as “highest”.

B2: MBIO-4039: MBIO-2859 variant (Table 13), SEQ ID NO: 2730 (protein)
chain: B1 chain with D23I, R55S, L56Q, K68S, Q82R, D109A, T114V
For B2, the stability [3, 5] was “most stable” and the luciferase activity [2, 5] was “highest”.

B3: MBIO-4039_No Lysine Residues: LuxSit-i variant that lacks lysine residues, SEQ ID NO: 2737 (protein)
chain: MSGMSEEQIRQNLRRFYEALDSGDAITAASLFDPGVTITLWDGTTFTSVEEFREWFESQFSTSRDALREISSLEVRGDTVEVTVRLSFTRNGQRHTVDLLQLFRFVGNRVVAVRVYVNPT
For B3, the “activity of variant that lacks lysine residues” value ([2]; all lysine residues substituted) was “retains activity”.

B4: MBIO-5343 (peptide)
peptide: RVVIVRVYVNPTG
In the case of B4, the “Baseline Signal (Normalized by expression)” value (LgLux_4039) is reported as 20200 and the “Fold change upon Rap addition” value (LgLux_4039) is reported as 1.8 fold.

B5: MBIO-301: LuxSit-i variant F9N, Q64L, A85F, H87R, H99L, T108D, H113Y, W100F; SEQ ID NO 104 (protein)
chain: MSEEQIRQNLRRFYEALDSGDADTAASLFHPGVTIHLWDGVTFTSREEFREWFERLFSTSKDALREIKSLEVRGDTVEVHVQLHFTRNGQKHTVDLTHLFHFRGNRVDEVRVYINPTG
In the case of B5, the luciferase activity ([2]; among mutants from combinatorial library, Table 10) is reported as “highest”.

B6: MBIO-150: LuxSit-i variant F9S, SEQ ID NO 73 (protein)
chain: B5 chain with N9S, L64Q, F85A, R87H, L99H, F100W, D108T, Y113H
With B6 the Brightness improvement ([4]; Table 2, single substitutions) was “No change” and the Stability improvement ([3]; Table 2, single substitutions) was “Monomeric”.

B7: MBIO-151: LuxSit-i variant F9S_A85F_H87L, SEQ ID NO: 7 (protein)
chain: B5 chain with N9S, L64Q, R87L, L99H, F100W, D108T, Y113H
In the case of B7, the Brightness improvement [4, 6] is reported as “No change” and the Stability improvement [3, 6] is reported as “No change”.

B8: MBIO-147: LuxSit-i variant W100F_A85F_H87L, SEQ ID NO: 3 (protein)
chain: B5 chain with N9F, L64Q, R87L, L99H, D108T, Y113H
In the case of B8, the Brightness improvement [4, 6] is reported as “Increase” and the Stability improvement [3, 6] is reported as “Monomeric”.

B9: MBIO-157: LuxSit-i variant Q64W, SEQ ID NO 47 (protein)
chain: B5 chain with N9F, L64W, F85A, R87H, L99H, F100W, D108T, Y113H
For B9, the Brightness improvement ([4]; Table 2, single substitutions) was “Slight increase” and the Stability improvement ([3]; Table 2, single substitutions) was “No change”.

B10: MBIO-156: LuxSit-i variant H87L, SEQ ID NO 88 (protein)
chain: B5 chain with N9F, L64Q, F85A, R87L, L99H, F100W, D108T, Y113H
For B10, the Brightness improvement ([4]; Table 2, single substitutions) was “Slight increase” and the Stability improvement ([3]; Table 2, single substitutions) was “No change”.

B11: MBIO-155: LuxSit-i variant F9V_A85F_H87L_Q64W, SEQ ID NO: 4 (protein)
chain: B5 chain with N9V, L64W, R87L, L99H, F100W, D108T, Y113H
With B11 the Brightness improvement [4, 6] was “Slight increase” and the Stability improvement [3, 6] was “Slight improvement”.

B12: MBIO-2466: MBIO-301 variant, H30D H36T H80T H84S H92S H98Q H101R; SEQ ID NO 2703 (protein)
chain: B5 chain with H30D, H36T, H80T, H84S, H92S, H98Q, H101R
In the case of B12, the “luciferase activity, higher than MBIO-301” value ([2]; relative to MBIO-301) is reported as “more than 5 ×”.

B13: MBIO-149: LuxSit-i variant A85F, SEQ ID NO 82 (protein)
chain: B5 chain with N9F, L64Q, R87H, L99H, F100W, D108T, Y113H
For B13, the Brightness improvement ([4]; Table 2, single substitutions) was “Slight increase” and the Stability improvement ([3]; Table 2, single substitutions) was “No change”.

B14: MBIO-148: LuxSit-i variant W100F_A85F_H87L_Q64W, SEQ ID NO: 2600 (SEQ ID NO 2 in Table 4) (protein)
chain: B5 chain with N9F, L64W, R87L, L99H, D108T, Y113H
In the case of B14, the Brightness improvement [4, 6] is reported as “Increase” and the Stability improvement [3, 6] is reported as “Monomeric”.

B15: MBIO-154: LuxSit-i variant F9V_A85F_H87L, SEQ ID NO: 5 (protein)
chain: B5 chain with N9V, L64Q, R87L, L99H, F100W, D108T, Y113H
With B15 the Brightness improvement [4, 6] was “Slight increase” and the Stability improvement [3, 6] was “Slight improvement”.

B16: MBIO-158: LuxSit-i variant W100F (protein)
chain: B5 chain with N9F, L64Q, F85A, R87H, L99H, D108T, Y113H
With B16 the Brightness improvement ([4]; Table 2, single substitutions) was “Slight increase” and the Stability improvement ([3]; Table 2, single substitutions) was “Monomeric”.

B17: MBIO-152: LuxSit-i variant F9S_A85F_H87L_Q64W, SEQ ID NO: 6 (protein)
chain: B5 chain with N9S, L64W, R87L, L99H, F100W, D108T, Y113H
In the case of B17, the Brightness improvement [4, 6] is reported as “Slight increase” and the Stability improvement [3, 6] is reported as “Slight improvement”.

B18: MBIO-5344 (peptide)
peptide: HVVAVRVYVNPTG
With B18 the “Baseline Signal (Normalized by expression)” value (LgLux_4039) was 23900 and the “Fold change upon Rap addition” value (LgLux_4039) was 2 fold.
